In publication PMC3027643:

Biological target: mISCU/mNFS1/mISD11 complex (mouse) (UniProt Q9D7P6)
Experiment: native MS; ESI native mass spectrometry of the quaternary complexes after gel filtration, 50 mM ammonium acetate; masses of the GST-mFXN and the mFXN-HIS complex compared

Chain of UniProt Q9D7P6 (Q9D7P6 36-168, chain 1 of 3): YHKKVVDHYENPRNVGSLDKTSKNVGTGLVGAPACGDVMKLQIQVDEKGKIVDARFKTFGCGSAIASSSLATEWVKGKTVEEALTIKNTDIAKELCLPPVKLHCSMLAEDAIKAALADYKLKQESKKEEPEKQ
Chain of UniProt Q9D7P6 (Q9Z1J3 18-459, chain 2 of 3, further chain): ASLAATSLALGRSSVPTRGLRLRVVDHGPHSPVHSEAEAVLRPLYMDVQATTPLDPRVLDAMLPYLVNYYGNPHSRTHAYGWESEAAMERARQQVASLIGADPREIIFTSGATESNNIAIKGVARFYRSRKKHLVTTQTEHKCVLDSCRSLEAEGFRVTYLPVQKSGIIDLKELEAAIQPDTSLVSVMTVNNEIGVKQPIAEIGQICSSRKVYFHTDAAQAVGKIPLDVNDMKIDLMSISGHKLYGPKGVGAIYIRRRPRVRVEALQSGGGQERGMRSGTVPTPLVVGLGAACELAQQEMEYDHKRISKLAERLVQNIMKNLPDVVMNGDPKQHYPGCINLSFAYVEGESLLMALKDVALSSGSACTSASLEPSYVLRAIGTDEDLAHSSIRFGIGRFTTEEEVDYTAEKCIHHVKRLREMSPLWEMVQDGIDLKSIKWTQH
Chain of UniProt Q9D7P6 (Q8K215 whole entry, chain 3 of 3, further chain): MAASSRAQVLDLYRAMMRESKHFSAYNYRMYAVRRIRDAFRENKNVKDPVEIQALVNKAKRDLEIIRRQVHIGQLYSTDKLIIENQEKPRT

- stoichiometry N: 2
Substance: mFXN-HIS (natural protein)
